# According to paper PMC4973743, “Functional analysis of structurally related soybean GmWRKY58 and GmWRKY76 in plant growth and development”:
# Where a chain is given by its changes, count along the chain named.
# T1: GmWRKY76 (Glycine max (soybean), UniProt I1KB70 1-319)
# T1 sequence: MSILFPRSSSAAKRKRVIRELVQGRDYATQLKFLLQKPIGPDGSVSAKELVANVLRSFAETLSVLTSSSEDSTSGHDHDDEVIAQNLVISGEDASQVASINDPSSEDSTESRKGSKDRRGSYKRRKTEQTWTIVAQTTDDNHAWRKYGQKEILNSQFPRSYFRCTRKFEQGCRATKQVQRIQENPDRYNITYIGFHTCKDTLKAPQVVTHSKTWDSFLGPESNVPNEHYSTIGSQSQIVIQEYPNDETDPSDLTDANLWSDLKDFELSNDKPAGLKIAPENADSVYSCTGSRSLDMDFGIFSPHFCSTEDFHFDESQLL
# T2: GmWRKY58 (Glycine max (soybean), UniProt B0LUS3 1-317)
# T2 sequence: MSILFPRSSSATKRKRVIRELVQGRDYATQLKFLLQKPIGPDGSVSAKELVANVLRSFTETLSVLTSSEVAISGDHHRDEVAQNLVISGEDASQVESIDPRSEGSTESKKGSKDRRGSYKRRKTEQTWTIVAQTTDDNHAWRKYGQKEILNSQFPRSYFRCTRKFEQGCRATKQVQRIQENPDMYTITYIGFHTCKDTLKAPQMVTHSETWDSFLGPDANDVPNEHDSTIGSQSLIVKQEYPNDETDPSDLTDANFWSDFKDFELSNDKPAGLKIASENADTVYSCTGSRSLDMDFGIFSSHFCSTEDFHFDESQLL
# B1: Pchn5 (dsDNA)
# DNA 1: GGAACTTGACCATCCGTTGACCGGGCTGCAGGAATTCG
# DNA 2: CGAATTCCTGCAGCCCGGTCAACGGATGGTCAAGTTCC
# B2: mPchn5 (dsDNA)
# DNA 1: B1 DNA 1 with C10A, C21A
# DNA 2: B1 DNA 2 with G18T, G29T
# Assays:
# GmWRKY76 = target: T1, GmWRKY76; test: EMSA; 5 ug poly(dI-dC), 1 ug protein; LightShift Chemiluminescent EMSA kit; 20 ul reactions, 2 ng labeled oligo, 5 ug poly(dI-dC), 1 ug recombinant protein; buffer, salt, pH and temperature not stated; conditions: tags: His (pET32a fusion), label: biotin 3' end
# GmWRKY58 = target: T2, GmWRKY58; test: as above; conditions: tags: His (pET32a fusion), label: biotin 3' end
Binder,binding result (GmWRKY76),binding result (GmWRKY58)
B1,binds,binds
B2,no binding,no binding
